Values of other authors, collected in patent US20070140974A1, “Targeted nanoparticles for magnetic resonance imaging” (General Electric Company, priority 2005, published 2007).

Key:
[1] = room temperature, 1.5 Tesla magnetic field
uPAR = uPAR (Homo sapiens, UniProt Q03405)
Chain of uPAR (Q03405 23-305): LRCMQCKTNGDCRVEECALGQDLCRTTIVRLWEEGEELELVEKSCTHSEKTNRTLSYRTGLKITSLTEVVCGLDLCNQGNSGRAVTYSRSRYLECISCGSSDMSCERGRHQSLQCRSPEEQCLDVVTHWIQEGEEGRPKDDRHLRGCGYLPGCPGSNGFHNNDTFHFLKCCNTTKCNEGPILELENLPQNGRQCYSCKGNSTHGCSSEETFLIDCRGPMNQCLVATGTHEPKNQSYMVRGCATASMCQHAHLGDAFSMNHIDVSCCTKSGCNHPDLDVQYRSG

R1 relaxivity [1] | Molecule | binding of uPAR and inhibition of integrin or vitronectin binding (uPAR)
3 mM⁻¹ s⁻¹ | O=C([O-])CN(CCN(CC(=O)[O-])CC(=O)O)CCN(CC(=O)[O-])CC(=O)O.[Gd+3] [Gd-DTPA] | 
 | AEFFKLGPNGYVYLHSA | capable of binding uPAR and inhibiting binding of vitronectin
 | AELDLSTFYDIQYLLRT | capable of binding uPAR and inhibiting binding of vitronectin
 | AEPVYQYELDSYLRSYY | capable of binding uPAR and inhibiting binding of vitronectin
 | AESTYHHLSLGYMYTLN | capable of binding uPAR and inhibiting binding of integrin
